Laboratory results published in paper PMC2141736.

Target: Schistosoma japonicum glutathione S-transferase (GST) (Schistosoma japonicum)
Assay: cross-linking

Schistosoma japonicum glutathione S-transferase (GST) (enzyme)
stoichiometry N: 2
